Assay in all cases: EMSA
For orientation: A gel shift assay detects complexes by their altered migration in electrophoresis.

Series [1] has as its target T1, GST-HuR (UniProt Q15717 1-326).
For series [2], the target named is T1, GST-HuR. This is another data set of the same source.
The target in series [3] is T1, GST-HuR. The source holds these as a separate data set.
The target in series [4] is T1, GST-HuR. This is another data set of the same source.

Like-named read-outs stand apart in the source and are kept apart here.

T1 sequence (Q15717 whole entry): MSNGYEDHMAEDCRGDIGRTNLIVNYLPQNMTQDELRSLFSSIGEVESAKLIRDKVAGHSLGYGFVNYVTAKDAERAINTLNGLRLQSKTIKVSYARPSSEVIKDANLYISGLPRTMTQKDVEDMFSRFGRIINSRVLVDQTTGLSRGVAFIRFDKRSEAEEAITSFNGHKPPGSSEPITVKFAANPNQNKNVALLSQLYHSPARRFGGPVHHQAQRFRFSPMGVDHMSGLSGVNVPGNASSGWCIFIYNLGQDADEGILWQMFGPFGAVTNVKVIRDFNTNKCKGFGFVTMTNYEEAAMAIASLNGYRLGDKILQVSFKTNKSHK

B1: P2-2 (ssRNA)
RNA: GGGAGUAUGUAUGGAAUGUUAUGAUAGGACAUAGUAAUAGUGGUCAGAUGUGGAAA
On to B1, for which the binding result with GST-HuR [1] is on record as “no binding”.

B2: P1-1-mut2 (E2 U to C) (ssRNA)
RNA: GGGGAAAAGGGUUUAAACAGUUUGAAAUAUUCUGUCUUCAUUUCUGCAACAGCCA
Take B2: the binding result in the series with GST-HuR [2] is “no binding”.

B3: P1-1-mut3 (hinge U to C) (ssRNA)
RNA: GGGGAAAAGGGUUUAAACAGUUUGAAAUAUUCCGCCCCCACCCCCGUAAUAGUUA
With B3, in the series with GST-HuR [3], the binding result is listed as “binds”.
For the molecule GGGAUAUCUGGCUGUCCUUUUUAUAAUGCAAAGUGAGAACUUUCCCUAC (ssRNA) [P1-2], the binding result in the series with GST-HuR [1] is “no binding”.

B4: P1-1-mut1 (E1 U to C) (ssRNA)
RNA: GGGGAAAAGGGUUUAAACAGCCCGAAACACCCUGUCUUCAUUUCUGUAAUAGUUA
As to B4, the binding result in the series with GST-HuR [4] is given as “no binding”.

B5: P1-1 (ssRNA)
RNA: GGGGAAAAGGGUUUAAACAGUUUGAAAUAUUCUGUCUUCAUUUCUGUAAUAGUUA
Turning to B5, the binding result with GST-HuR [1] is on record as “binds”.

B6: P2-1 (ssRNA)
RNA: GGGCCUGUUUAGUUUUCAAGGAUGGAACUCCACCCUUUACUUGGUUUUAAGU
As to B6, the binding result with GST-HuR [1] is recorded as “no binding”.

B7: P2-3 (ssRNA)
RNA: GGGAAAUGGUAGGGAGACAAAUAUACAUGUGAAAUAAACUCAGUAUUUUAAUAAAGU
For B7, the binding result in the series with GST-HuR [1] is on record as “no binding”.

B8: P1-3 (ssRNA)
RNA: GGGUACUGUGUUUGAUAAAUGUUGUCCAGGUUCACUUGCCAAGAAUGUGUUGUCUAAAAUG
On to B8, for which the binding result in the series with GST-HuR [1] is given as “no binding”.
